# Measured values as given in US20220177564A1 (Ablynx, published 2022).
# Values joined by “and” are separate entries in the source; they are usually repeats but may differ in a detail not shown here. Identical values can stand only once.
# T1: human IL4 (human, UniProt P05112 25-153)
# T1 construct: also called human 1L4
# T1 sequence (looked up): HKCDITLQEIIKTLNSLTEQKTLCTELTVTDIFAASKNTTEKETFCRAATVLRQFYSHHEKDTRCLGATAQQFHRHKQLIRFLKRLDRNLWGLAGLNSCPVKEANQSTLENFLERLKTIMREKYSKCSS
# T2: human IL7 (human, UniProt P13232 26-177)
# T2 construct: also called 1L7
# T2 sequence (looked up): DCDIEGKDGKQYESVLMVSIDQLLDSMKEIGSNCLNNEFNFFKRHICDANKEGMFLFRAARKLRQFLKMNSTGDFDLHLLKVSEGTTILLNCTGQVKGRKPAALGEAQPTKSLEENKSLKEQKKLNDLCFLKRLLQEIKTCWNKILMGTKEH
# B1: F027400161 (other)
# chain: DVQLVESGGGVVQPGGSLRLSCAASGRTFSSYRMGWFRQAPGKEREFVAALSGDGYSTYTANSVKGRFTISRDNSKNTVYLQMNSLRPEDTALYYCAAKLQYVSGWSYDYPYWGQGTLVTVSSGGGGSGGGGSGGGGSGGGGSGGGGSGGGGSGGGGSEVQLVESGGGVVQPGGSLRLSCAASGFTFNNYAMKWVRQAPGKGLEWVSSITTGGGSTDYADSVKGRFTISRDNSKNTLYLQMNSLRPEDTALYYCANVPFGYYSEHFSGLSFDYRGQGTLVTVSSGGGGSGGGSEVQLVESGGGVVQPGGSLRLSCAASGSGFGVNILYWYRQAAGIERELIASITSGGITNYVDSVKGRFTISRDNSENTMYLQMNSLRAEDTGLYYCASRNIFDGTTEWGQGTLVTVSSGGGGSGGGSEVQLVESGGGVVQPGGSLRLSCAASGFTFRSFGMSWVRQAPGKGPEWVSSISGSGSDTLYADSVKGRFTISRDNSKNTLYLQMNSLRPEDTALYYCTIGGSLSRSSQGTLVTVSSGGGGSGGGSEVQLVESGGGVVQPGGSLRLSCAASGFTFADYDYDIGWFRQAPGKEREGVSCISNRDGSTYYADSVKGRFTISRDNSKNTVYLQMNSLRPEDTALYYCAVEIHCDDYGVENFDFDPWGQGTLVTVSSA
# notes: Pentavalent trispecific ISVD construct (two anti-IL-13 VHHs, two anti-TSLP VHHs, one anti-albumin VHH), Pichia pastoris, purified by Protein A; also called F027100161
# B2: IL13Rα2 (receptor, UniProt Q14627 27-343, looked up)
# chain: DTEIKVNPPQDFEIVDPGYLGYLYLQWQPPLSLDHFKECTVEYELKYRNIGSETWKTIITKNLHYKDGFDLNKGIEAKIHTLLPWQCTNGSEVQSSWAETTYWISPQGIPETKVQDMDCVYYNWQYLLCSWKPGIGVLLDTNYNLFYWYEGLDHALQCVDYIKADGQNIGCRFPYLEASDYKDFYICVNGSSENKPIRSSYFTFQLQNIVKPLPPVYLTFTRESSCEIKLKWSIPLGPIPARCFDYEIEIREDDTTLVTATVENETYTLKTTNETRQLCFVVRSKVNIYCSDDGIWSEWSDKQCWEGEDLSKKTLLR
# notes: Coated on the plate and also titrated in solution as positive control compound
# B3: F0107004B02 (VHH)
# VHH: EVQLVESGGGLVQAGGSLRLSCAASGRTFSSYRMGWFRQAPGKEREFVAALSGDGYSTYTANSVNSRFTISRDNAKNTVYLQMNSLKPEDTAIYYCAAKLQYVSGWSYDYPYWGQGTLVTVSS
# notes: Wild-type anti-IL-13 ISVD; also called F010704B02; F107004B02; not shown: c-myc, His6 tag of the purified protein
# B4: F0107529F10 (VHH)
# VHH: EVQLVESGGGLVQAGGSLRLSCAASGFTFADYDYDIGWFRQAPGKEREGVSCISNRDGSTYYTDSVKGRFTISSDNAKNTVSLQMNSLKPEDTAVYYCAVEIHCDDYGVENFDFDPWGQGTLVTVSS
# notes: Wild-type anti-TSLP ISVD; also called F107529F10; not shown: c-myc, His6 tag of the purified protein
# Experiments:
# human TSLP [1] = target: T3, human TSLP (human, UniProt Q969D9 29-159); test: cell-based or functional assay
# human IL-13 [2] = target: T4, human IL-13 (human, UniProt P35225 35-146, limits assumed); test: cell-based or functional assay
# cyno IL-13 [3] = target: T5, cyno IL-13 (cynomolgus monkey, UniProt Q0PW92 21-132); test: cell-based or functional assay
# rhesus IL-13 [4] = target: T6, rhesus IL-13 (rhesus monkey, UniProt Q864V6 19-132, limits assumed); test: cell-based or functional assay
# human IL-13 [5] = target: T4, human IL-13; test: cell-based or functional assay; remark: listed apart in the source
# cyno IL-13 [6] = target: T5, cyno IL-13; test: cell-based or functional assay; remark: listed apart in the source
# human TSLP [7] = target: T3, human TSLP; test: cell-based or functional assay; remark: listed apart in the source
# cyno TSLP [8] = target: T7, cyno TSLP (cynomolgus monkey, UniProt A0A7N9CAT7 29-159); test: cell-based or functional assay
# short form of TSLP = short form of TSLP (UniProt Q969D9-2 1-63, limits assumed); test: SPR (ProteOn), short form of TSLP immobilised
# human serum albumin = target: T8, human serum albumin (human, UniProt P02768 25-609); test: Gyrolab in-solution affinity, 2 h incubation
# T8 construct: also called HSA; SA (human)
# cyno serum albumin = target: T9, cyno serum albumin (cynomolgus monkey); test: Gyrolab in-solution affinity, 2 h incubation
# T9 construct: also called SA (cynomolgus monkey)
# mouse serum albumin = target: T10, mouse serum albumin (mouse, UniProt P07724 25-608); test: Gyrolab in-solution affinity, 2 h incubation
# T10 construct: also called SA (mouse)
# human IL-13 [9] = target: T4, human IL-13; test: Gyrolab in-solution affinity, 48 h incubation
# cyno IL-13 [10] = target: T5, cyno IL-13; test: Gyrolab in-solution affinity, 48 h incubation
# human TSLP [11] = target: T3, human TSLP; test: Gyrolab in-solution affinity, 48 h incubation
# cyno TSLP [12] = target: T7, cyno TSLP; test: Gyrolab in-solution affinity, 48 h incubation
# human IL-13 [13] = target: T4, human IL-13; test: Gyrolab in-solution affinity, 72 h incubation
# cyno IL-13 [14] = target: T5, cyno IL-13; test: Gyrolab in-solution affinity, 72 h incubation
# rhesus IL-13 [15] = target: T6, rhesus IL-13; test: Gyrolab in-solution affinity, 72 h incubation
# human TSLP [16] = target: T3, human TSLP; test: Gyrolab in-solution affinity, 72 h incubation
# cyno TSLP [17] = target: T7, cyno TSLP; test: Gyrolab in-solution affinity, 72 h incubation
# human IL4 = target: T1, human IL4; test: SPR (ProteOn XPR36), cytokine immobilised by amine coupling
# human IL7 = target: T2, human IL7; test: as above
# hIL13-Fc [18] = target: T11, hIL13-Fc (human, UniProt P35225 25-146); test: competition ELISA; soluble IL-13Rα2 as positive control against coated IL13Rα2
# T11 construct: not shown: Fc part and any linker not described
# human IL-13 [19] = target: T4, human IL-13; test: cell-based or functional assay; remark: listed apart in the source
# hIL13-Fc [20] = target: T11, hIL13-Fc; test: competition ELISA; hIL13-Fc to coated IL13Rα2
# human IL-13 [21] = target: T4, human IL-13; test: AlphaScreen, purified ISVD; hIL-13 to hIL-13Rα1-hFc
# hIL13-Fc [22] = target: T11, hIL13-Fc; test: SPR; * measured on hIL-13-Fc (same values as Table 9)
# hIL13-Fc [23] = target: T11, hIL13-Fc; test: SPR (ProteOn XPR36), periplasmic extract over immobilised Fc fusion
# cyno IL13-Fc [24] = target: T12, cyno IL13-Fc (cynomolgus monkey, UniProt Q0PW92 11-132); test: as above
# T12 construct: not shown: Fc part and any linker not described
# human IL-13 [25] = target: T4, human IL-13; test: AlphaScreen, purified ISVD; hIL-13:hIL-13Rα1:hIL4Rα ternary complex
# hIL13-Fc [26] = target: T11, hIL13-Fc; test: SPR (BIAcore T100), hIL13-Fc immobilised on CM5; heterogeneous ligand fit, major interaction
# cyno IL13-Fc [27] = target: T12, cyno IL13-Fc; test: SPR (BIAcore T100), cyno IL13-Fc immobilised on CM5; heterogeneous ligand fit, major interaction
# human TSLP [28] = target: T3, human TSLP; test: SPR, hTSLP
# cyno TSLP [29] = target: T7, cyno TSLP; test: SPR, cyno TSLP
# hTSLP-Fc [30] = target: T13, hTSLP-Fc (human, UniProt Q969D9 29-159); test: SPR, hTSLP-hFc (same value as Table 10)
# T13 construct: also called hTSLP-hFc; hTLSP-Fc; not shown: human Fc part and any linker not described
# human TSLP [31] = target: T3, human TSLP; test: AlphaScreen, purified ISVD; hTSLP to hTSLPR
# cyno TSLP-Fc [32] = target: T14, cyno TSLP-Fc (cynomolgus monkey, UniProt A0A7N9CAT7 29-159); test: SPR, cyno TSLP-hFc (same value as Table 10)
# T14 construct: also called cyno TSLP-hFc; not shown: human Fc part and any linker not described
# hTSLP-Fc [33] = target: T13, hTSLP-Fc; test: SPR (BIAcore T100), Fc fusion captured by anti-huIgG
# cyno TSLP-Fc [34] = target: T14, cyno TSLP-Fc; test: as above
# human TSLP [35] = target: T3, human TSLP; test: AlphaScreen, purified ISVD; hTSLP:hTSLPR:hIL7Rα ternary complex
# hTSLP-Fc [36] = target: T13, hTSLP-Fc; test: SPR (ProteOn XPR36), periplasmic extract over immobilised Fc fusion
# cyno TSLP-Fc [37] = target: T14, cyno TSLP-Fc; test: as above
binder,measurement,setting,value
B1,"mean IC50, TSLP-induced CCL17 production in human DCs",human TSLP [1],0.0533 nM
same,"eotaxin release assay (IC50, pM)",human IL-13 [2],194 pM
same,"eotaxin release assay (IC50, pM)",cyno IL-13 [3],1040 pM
same,"eotaxin release assay (IC50, pM)",rhesus IL-13 [4],713 pM
same,"IC50, SEAP reporter assay (HEK-Blue IL-4/IL-13 cells)",human IL-13 [5],0.0328 nM
same,"IC50, SEAP reporter assay (HEK-Blue IL-4/IL-13 cells)",cyno IL-13 [6],0.0534 nM
same,"BaF3 proliferation assay (IC50, pM)",human TSLP [7],7.8 pM
same,"BaF3 proliferation assay (IC50, pM)",cyno TSLP [8],24 pM
same,binding result,short form of TSLP,no binding (tested: 500 nM)
same,Kd,human serum albumin,0.119 nM and 0.11 nM and 0.145 nM
same,Kd,cyno serum albumin,0.198 nM and 0.133 nM and 0.145 nM
same,Kd,mouse serum albumin,1.8 nM
same,Kd,human IL-13 [9],0.0042 nM and 0.0063 nM
same,Kd,cyno IL-13 [10],0.0038 nM and 0.0015 nM
same,Kd,human TSLP [11],0.0018 nM and 0.0023 nM
same,Kd,cyno TSLP [12],0.0559 nM and 0.044 nM
same,Kd,human IL-13 [13],0.0047 nM
same,Kd,cyno IL-13 [14],0.0035 nM
same,Kd,rhesus IL-13 [15],0.0015 nM
same,Kd,human TSLP [16],0.001 nM
same,Kd,cyno TSLP [17],0.059 nM
same,binding result,human IL4,no binding (tested: 1 µM)
same,binding result,human IL7,no binding (tested: 1 µM)
B2,IC50,hIL13-Fc [18],7.9 nM
B3,"IC50, IL-13-induced TF-1 proliferation assay",human IL-13 [19],27 nM
same,IC50,hIL13-Fc [20],49 nM
same,IC50,human IL-13 [21],4 nM
same,Kd,hIL13-Fc [22],1100 nM
same,koff,hIL13-Fc [22],0.024 s⁻¹
same,kon,hIL13-Fc [22],22000 M⁻¹ s⁻¹
same,koff,hIL13-Fc [23],0.0017 s⁻¹
same,koff,cyno IL13-Fc [24],0.0011 s⁻¹
same,IC50,human IL-13 [25],1.7 nM
same,Kd,hIL13-Fc [26],1100 nM
same,koff,hIL13-Fc [26],0.024 s⁻¹
same,kon,hIL13-Fc [26],22000 M⁻¹ s⁻¹
same,Kd,cyno IL13-Fc [27],1900 nM
same,koff,cyno IL13-Fc [27],0.034 s⁻¹
same,kon,cyno IL13-Fc [27],18000 M⁻¹ s⁻¹
B4,koff,human TSLP [28],6.6e-05 s⁻¹
same,koff,cyno TSLP [29],0.0018 s⁻¹
same,Kd,hTSLP-Fc [30],0.035 nM
same,IC50,human TSLP [31],0.013 nM
same,Kd,cyno TSLP-Fc [32],1.7 nM
same,Kd,hTSLP-Fc [33],0.035 nM
same,koff,hTSLP-Fc [33],0.00042 s⁻¹
same,kon,hTSLP-Fc [33],1.2e+07 M⁻¹ s⁻¹
same,Kd,cyno TSLP-Fc [34],1.7 nM
same,koff,cyno TSLP-Fc [34],0.0015 s⁻¹
same,kon,cyno TSLP-Fc [34],870000 M⁻¹ s⁻¹
same,IC50,human TSLP [35],0.18 nM
same,koff,hTSLP-Fc [36],< 5e-05 s⁻¹
same,koff,cyno TSLP-Fc [37],0.0018 s⁻¹
